In PMC11074293 (Nature Communications, 2024):

B1: KLHL22 (full length, N-terminal His6) (natural protein, human, UniProt Q53GT1 1-634, looked up)
chain: MAEEQEFTQLCKLPAQPSHPHCVNNTYRSAQHSQALLRGLLALRDSGILFDVVLVVEGRHIEAHRILLAASCDYFRGMFAGGLKEMEQEEVLIHGVSYNAMCQILHFIYTSELELSLSNVQETLVAACQLQIPEIIHFCCDFLMSWVDEENILDVYRLAELFDLSRLTEQLDTYILKNFVAFSRTDKYRQLPLEKVYSLLSSNRLEVSCETEVYEGALLYHYSLEQVQADQISLHEPPKLLETVRFPLMEAEVLQRLHDKLDPSPLRDTVASALMYHRNESLQPSLQSPQTELRSDFQCVVGFGGIHSTPSTVLSDQAKYLNPLLGEWKHFTASLAPRMSNQGIAVLNNFVYLIGGDNNVQGFRAESRCWRYDPRHNRWFQIQSLQQEHADLSVCVVGRYIYAVAGRDYHNDLNAVERYDPATNSWAYVAPLKREVYAHAGATLEGKMYITCGRRGEDYLKETHCYDPGSNTWHTLADGPVRRAWHGMATLLNKLYVIGGSNNDAGYRRDVHQVACYSCTSGQWSSVCPLPAGHGEPGIAVLDNRIYVLGGRSHNRGSRTGYVHIYDVEKDCWEEGPQLDNSISGLAACVLTLPRSLLLEPPRGTPDRSQADPDFASEVMSVSDWEEFDNSSED
notes: Kelch-like protein 22 (KLHL22), human, full length; Dimer in the cryo-EM structure of CRL3^KLHL22; also called His6-KLHL22
B2: KLHL22^1–178 (domain or fragment, human, UniProt Q53GT1 1-178, looked up)
chain: MAEEQEFTQLCKLPAQPSHPHCVNNTYRSAQHSQALLRGLLALRDSGILFDVVLVVEGRHIEAHRILLAASCDYFRGMFAGGLKEMEQEEVLIHGVSYNAMCQILHFIYTSELELSLSNVQETLVAACQLQIPEIIHFCCDFLMSWVDEENILDVYRLAELFDLSRLTEQLDTYILKN
notes: TEV site ENLYFQG: a residue of the site may be left at the N-terminus after cleavage; source: E. coli BL21(DE3), purified (Ni-IDA, SEC), His-MBP tag removed with TEV protease; not shown: His6, N-terminal, cleaved; MBP, N-terminal, cleaved
B3: KLHL12^1–161 (domain or fragment, human, UniProt Q53G59 1-161, looked up)
chain: MGGIMAPKDIMTNTHAKSILNSMNSLRKSNTLCDVTLRVEQKDFPAHRIVLAACSDYFCAMFTSELSEKGKPYVDIQGLTASTMEILLDFVYTETVHVTVENVQELLPAACLLQLKGVKQACCEFLESQLDPSNCLGIRDFAETHNCVDLMQAAEVFSQKH
notes: as for B2

What was measured:
[1] = target: the molecule itself; assay: cryo-EM structure; full-length CUL3-RBX1-KLHL22 co-expressed in SF9, purified, GraFix (glutaraldehyde gradient); C2 symmetry, 3.8 Å overall, 3.3 Å for the dimer assembly region
[2] = target: T1, CUL3^Δ1–13-RBX1 (human, UniProt Q13618 14-768; P62877 1-108); assay: ITC; ITC200; CUL3-RBX1 (120 μM) in the syringe titrated into KLHL22^1–178 (10 μM) in the cell, 25 °C, one-site model; repeated with KLHL22^1–178 (120 μM) into CUL3-RBX1 (12 μM); conditions: both partners purified
T1 construct: Cullin-3 (CUL3), human, residues 1-13 deleted (partial deletion of the NA motif); RBX1, human, without a tag; source: purified; host stated only for wild-type CUL3-RBX1 (SF9); copies: 1 + 1

[3] = target: T2, CUL3^WT-RBX1 (human, UniProt Q13618 1-768; P62877 1-108); assay: as above; conditions: both partners purified
T2 construct: Cullin-3 (CUL3), human, full length; also called CUL3-RBX1; (CUL3-His6)-RBX1; source: SF9 insect cells, co-expressed from pFastbac-dual, purified (Ni-IDA, SEC); copies: 1 + 1

[4] = target: T3, CUL3^Δ1–24-RBX1 (human, UniProt Q13618 25-768; P62877 1-108); assay: as above; conditions: both partners purified
T3 construct: Cullin-3 (CUL3), human, residues 1-24 (the whole NA motif) deleted; RBX1, human, without a tag; source: purified; host stated only for wild-type CUL3-RBX1 (SF9); copies: 1 + 1

[5] = target: the molecule itself; assay: SEC-MALS; WTC-015S5 column, low salt buffer; complexes at 2 mg/ml, KLHL22^1–178 and KLHL12^1–161 alone at 3 mg/ml
[6] = target: T1, CUL3^Δ1–13-RBX1; assay: SEC; analytical SEC, Superdex 200 Increase 10/300 GL, 20 mM Tris-HCl pH 8.0, 150 mM NaCl, 1% glycerol, 1 mM TCEP; purified proteins mixed 1:1 (also 2:1 and 4:1 CUL3-RBX1 to BTB protein), 10 min on ice; conditions: both partners purified
[7] = target: T2, CUL3^WT-RBX1; assay: as above; conditions: both partners purified
[8] = target: T3, CUL3^Δ1–24-RBX1; assay: as above; conditions: both partners purified

T1 sequence (Q13618 14-768, stated change not applied, chain 1 of 2): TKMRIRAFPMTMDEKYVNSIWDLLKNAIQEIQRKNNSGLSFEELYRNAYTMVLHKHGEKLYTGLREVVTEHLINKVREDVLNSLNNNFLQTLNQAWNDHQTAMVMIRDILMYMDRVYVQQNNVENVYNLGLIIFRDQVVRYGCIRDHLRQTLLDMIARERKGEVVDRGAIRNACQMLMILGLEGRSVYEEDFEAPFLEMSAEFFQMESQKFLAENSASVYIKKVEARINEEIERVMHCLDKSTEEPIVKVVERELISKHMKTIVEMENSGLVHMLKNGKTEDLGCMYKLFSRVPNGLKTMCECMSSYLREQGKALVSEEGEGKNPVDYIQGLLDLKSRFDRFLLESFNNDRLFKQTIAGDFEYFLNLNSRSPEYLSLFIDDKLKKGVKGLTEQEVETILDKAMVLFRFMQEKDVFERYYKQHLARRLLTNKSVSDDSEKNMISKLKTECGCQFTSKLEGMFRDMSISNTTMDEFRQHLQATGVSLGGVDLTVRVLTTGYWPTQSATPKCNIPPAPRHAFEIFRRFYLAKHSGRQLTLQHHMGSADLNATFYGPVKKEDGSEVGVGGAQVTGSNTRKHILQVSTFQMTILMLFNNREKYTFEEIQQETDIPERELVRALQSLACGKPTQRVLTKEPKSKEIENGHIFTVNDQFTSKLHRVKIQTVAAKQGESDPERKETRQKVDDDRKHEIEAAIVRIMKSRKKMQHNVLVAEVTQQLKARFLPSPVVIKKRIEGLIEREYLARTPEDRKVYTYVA
T1 sequence (P62877 whole entry, stated change not applied, chain 2 of 2, the tested form may be a part): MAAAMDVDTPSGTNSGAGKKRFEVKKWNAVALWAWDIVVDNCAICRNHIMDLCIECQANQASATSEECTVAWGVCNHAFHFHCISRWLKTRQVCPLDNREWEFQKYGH
T3 sequence (Q13618 25-768, stated change not applied, chain 1 of 2): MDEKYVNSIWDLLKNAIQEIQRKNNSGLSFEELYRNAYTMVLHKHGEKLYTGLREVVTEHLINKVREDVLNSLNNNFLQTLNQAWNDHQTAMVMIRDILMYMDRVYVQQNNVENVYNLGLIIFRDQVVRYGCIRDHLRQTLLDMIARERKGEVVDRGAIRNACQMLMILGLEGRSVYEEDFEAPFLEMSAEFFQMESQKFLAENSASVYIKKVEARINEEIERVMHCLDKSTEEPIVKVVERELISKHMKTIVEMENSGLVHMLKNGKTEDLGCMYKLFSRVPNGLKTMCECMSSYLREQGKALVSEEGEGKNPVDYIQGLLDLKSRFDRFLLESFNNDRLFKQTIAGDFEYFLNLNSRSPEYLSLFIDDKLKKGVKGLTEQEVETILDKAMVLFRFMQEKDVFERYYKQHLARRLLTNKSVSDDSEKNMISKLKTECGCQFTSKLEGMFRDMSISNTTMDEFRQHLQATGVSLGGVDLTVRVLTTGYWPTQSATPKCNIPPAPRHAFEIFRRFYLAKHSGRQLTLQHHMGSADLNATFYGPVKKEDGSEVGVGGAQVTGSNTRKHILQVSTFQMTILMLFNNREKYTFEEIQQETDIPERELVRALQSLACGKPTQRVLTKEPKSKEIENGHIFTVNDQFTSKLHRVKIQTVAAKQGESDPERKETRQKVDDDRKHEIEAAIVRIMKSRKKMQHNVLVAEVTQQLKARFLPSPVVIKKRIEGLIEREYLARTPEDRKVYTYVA
T3 sequence (P62877 whole entry, stated change not applied, chain 2 of 2, the tested form may be a part): as the sequence (P62877 whole entry, stated change not applied, chain 2 of 2, the tested form may be a part) above
T2 sequence (Q13618 whole entry, chain 1 of 2): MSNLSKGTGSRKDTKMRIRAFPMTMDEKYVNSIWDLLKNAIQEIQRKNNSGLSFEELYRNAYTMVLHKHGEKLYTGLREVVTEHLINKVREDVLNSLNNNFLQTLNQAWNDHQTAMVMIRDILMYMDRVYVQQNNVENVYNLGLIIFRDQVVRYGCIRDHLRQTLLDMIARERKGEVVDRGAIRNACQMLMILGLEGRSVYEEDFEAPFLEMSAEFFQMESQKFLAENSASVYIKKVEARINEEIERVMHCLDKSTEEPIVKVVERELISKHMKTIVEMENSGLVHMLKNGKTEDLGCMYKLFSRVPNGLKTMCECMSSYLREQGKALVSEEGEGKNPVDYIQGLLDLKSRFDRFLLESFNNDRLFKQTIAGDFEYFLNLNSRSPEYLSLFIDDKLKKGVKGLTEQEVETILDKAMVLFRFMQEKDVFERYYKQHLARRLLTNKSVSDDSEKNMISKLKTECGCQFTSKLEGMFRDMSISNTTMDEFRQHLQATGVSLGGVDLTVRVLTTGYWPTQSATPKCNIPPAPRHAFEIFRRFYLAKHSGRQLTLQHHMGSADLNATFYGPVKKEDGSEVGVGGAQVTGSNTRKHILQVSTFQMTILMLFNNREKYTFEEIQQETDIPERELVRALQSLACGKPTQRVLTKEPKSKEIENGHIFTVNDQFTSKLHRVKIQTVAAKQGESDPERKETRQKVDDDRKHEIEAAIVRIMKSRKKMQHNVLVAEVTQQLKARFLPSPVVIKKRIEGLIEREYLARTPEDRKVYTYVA
T2 sequence (P62877 whole entry, chain 2 of 2): as the sequence (P62877 whole entry, stated change not applied, chain 2 of 2, the tested form may be a part) above

| Binder | binding result [1] | Kd [2] [nM] | Kd [3] [nM] | Kd [4] [nM] | stoichiometry N [5] | binding result [6] | binding result [7] | binding result [8] |
| --- | --- | --- | --- | --- | --- | --- | --- | --- |
| B1 | binds | – | – | – | – | – | – | – |
| B2 | – | ~87 | ~27 | ~383 | 2 | – | – | – |
| B3 | – | – | – | – | 2 | binds | binds | binds |
